# Results published in patent US8389676B2, “Biotinylation tag peptides” (Pacific Biosciences of California, Inc., priority 2010, dated 2013).
# Substitutions are numbered along the chain they refer to. No end group written: not given here.
# B1: Leu Asn Asp Leu Phe His Ala Gln Lys Ile Glu Trp His (protein)
# chain: LNDLFHAQKIEWHHHHHHHHHHHMKHMPRKMYSCDFETTTKVEDCRVWAYGYMNIEDHSEYKIGNSLDEFMAWVLKVQADLYFHNLKFDGAFIINWLERNGFKWSADGLPNTYNTIISRMGQWYMIDICLGYKGKRKIHTVIYDSLKKLPFPVKKIAKDFKLTVLKGDIDYHKERPVGYKITPEEYAYIKNDIQIIAEALLIQFKQGLDRMTAGSDSLKGFKDIITTKKFKKVFPTLSLGLDKEVRYAYRGGFTWLNDRFKEKEIGEGMVFDVNSLYPAQMYSRLLPYGEPIVFEGKYVWDEDYPLHIQHIRCEFELKEGYIPTIQIKRSRFYKGNEYLKSSGGEIADLWLSNVDLELMKEHYDLYNVEYISGLKFKATTGLFKDFIDKWTYIKTTSEGAIKQLAKLMLNSLYGKFASNPDVTGKVPYLKENGALGFRLGEEETKDPVYTPMGVFITAWARYTTITAAQACYDRIIYCDTDSIHLTGTEIPDVIKDIVDPKKLGYWAHESTFKRAKYLRQKTYIQDIYMKEVDGKLVEGSPDDYTDIKFSVKCAGMTDKIKKEVTFENFKVGFSRKMKPKPVQVPGGVVLVDDTFTIK
# notes: biotinylation peptide tested as N-terminal fusion: biotinylation peptide-His(10)-phi29 pol
# B2: Leu Asn Asp Ile Val Glu Ala Gln Lys Ile Glu Trp His (protein)
# chain: B1 chain with L4I, F5V, H6E
# notes: as for B1
# Target: streptavidin (Streptomyces avidinii, UniProt P22629)
# Sequence (P22629 25-183, species assumed): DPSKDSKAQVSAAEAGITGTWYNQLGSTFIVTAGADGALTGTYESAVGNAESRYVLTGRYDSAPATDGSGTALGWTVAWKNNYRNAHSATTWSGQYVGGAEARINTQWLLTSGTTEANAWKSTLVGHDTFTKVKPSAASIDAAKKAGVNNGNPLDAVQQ
# Assay: Degree of biotinylation assessed by HPLC as fraction bound to streptavidin
# Format: binding
# Details: fusion protein biotinylation peptide-His(10)-phi29 pol, biotinylated in vivo in E. coli co-expressing biotin ligase, Ni-NTA purified, 2-fold molar excess of streptavidin
# Procedure: Each of the DNA sequences encoding the affinity peptides was added individually to the 5′ terminus of a His(10)-tagged phi29 DNA polymerase gene such that the polypeptide expressed from each construct was a fusion protein consisting of: N-terminus-biotinylation peptide-His(10)-phi29 pol-C-terminus. Each gene was expressed in E. coli cells co-expressing biotin ligase in culture medium containing biotin. These conditions are known to effect the in-vivo biotinylation of biotinylation peptides. Proteins were purified using Ni-NTA columns and then mixed with a 2-fold molar excess of streptavidin under conditions known to effect binding of streptavidin to biotinylated fusion proteins.
# The degree of biotinylation of each protein was assessed by HPLC. […] None of the biotinylation peptides affected the polymerase activity when tested in a branching fraction assay performed, for example, as described in U.S. patent application No. 2010/0112645.
row,Molecule,degree of biotinylation: bound to streptavidin
1,B1,approximately 50%
2,B2,approximately 50%
